The text below walks through data of US20110039758A1 (published 2011).

In general, IC50 refers to the concentration at which inhibition is half-maximal.

Ends that are not written are not given here. * marks the point of attachment. Biotin = O=C1N[C@H]2[C@H](CS[C@H]2CCCCC(=O)*)N1

The target of one assay is T1, GST-PSD95 PDZ domain 3 (human).
T1 construct: also called PSD95 d3; PSD95 domain 3
Description: G assay.

The target in assay [1] is T2, GST-PSD95 PDZ domain 1 (human).
T2 construct: also called PSD95 d1; PSD-95 d1
T2 sequence (chain, as listed by the source): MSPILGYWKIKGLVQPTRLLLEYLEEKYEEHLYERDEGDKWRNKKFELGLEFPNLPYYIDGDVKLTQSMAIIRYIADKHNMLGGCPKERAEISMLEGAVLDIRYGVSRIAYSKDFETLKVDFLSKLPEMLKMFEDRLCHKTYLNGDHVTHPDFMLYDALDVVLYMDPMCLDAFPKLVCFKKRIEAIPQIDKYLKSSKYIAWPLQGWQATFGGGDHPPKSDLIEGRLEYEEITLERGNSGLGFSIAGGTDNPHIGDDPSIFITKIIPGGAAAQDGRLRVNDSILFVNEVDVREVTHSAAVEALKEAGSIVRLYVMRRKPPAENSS
Description: G assay with MBP-nNOS, anti-MBP-HRP detection, FIG. 11.
Description: This protein was used in the G assay in place of a labeled peptide to assess the interaction between PSD95 domains 1 and 2 and nNOS, and detection was performed using an HRP-conjugated antibody against MBP. […] MBP/PSD95 indicates a negative control containing MBP without the nNOS sequences.

In assay [2] the target is T2, GST-PSD95 PDZ domain 1. Description: G assay.
The target of assay [3] is T3, GST-PSD95 PDZ domain 2 (human).
T3 construct: also called PSD95 d2; PSD-95 d2
As to the kind of experiment: G assay.

In assay [4] the target is T3, GST-PSD95 PDZ domain 2. As to the kind of experiment: G assay competition against NMDAR2A or R2B peptide, FIG. 10.

T1 sequence (chain, as listed by the source): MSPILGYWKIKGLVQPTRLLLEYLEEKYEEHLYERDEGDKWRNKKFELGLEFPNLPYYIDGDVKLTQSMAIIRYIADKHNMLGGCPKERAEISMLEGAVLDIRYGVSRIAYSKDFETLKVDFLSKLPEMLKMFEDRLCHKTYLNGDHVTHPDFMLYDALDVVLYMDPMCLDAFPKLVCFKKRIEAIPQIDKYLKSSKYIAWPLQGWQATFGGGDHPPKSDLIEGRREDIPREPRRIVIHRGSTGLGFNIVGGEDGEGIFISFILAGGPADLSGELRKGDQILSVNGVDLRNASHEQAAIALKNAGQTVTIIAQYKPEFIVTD

Take Biotin-ESSGTQSPKRHSGSYLVTSV [ESSGTQSPKRHSGSYLVTSV peptide]: the “Average OD” value in the assay with GST-PSD95 PDZ domain 3 was 0.7 OD.

B1: Maltose Binding Protein (MBP) fused to amino acids 1-120 of nNOS (other, UniProt P29475 1-120, looked up, not shown: large carriers)
chain: MEDHMFGVQQIQPNVISVRLFKRKVGGLGFLVKERVSKPPVIISDLIRGGAAEQSGLIQAGDIILAVNGRPLVDLSYDSALEVLRGIASETHVVLILRGPEGFTTHLETTFTGDGTPKTI
notes: range 1-120; also called MBP-nNOS; internal PL of nNOS
For the molecule B1, the binding result with GST-PSD95 PDZ domain 1 [1] is on record as “no binding”.
For YGRKKRRQRRREKHFRETEV (also: N-terminal biotin when used as labelled ligand) [TatTAX: TAT transporter sequence coupled to the C-terminal 9 amino acids of Tax], the “Average OD” value in the assay with GST-PSD95 PDZ domain 1 [2] is 2.81 OD; with GST-PSD95 PDZ domain 2 [3], 2.79 OD; in the assay with GST-PSD95 PDZ domain 3, 2.93 OD. The IC50 with GST-PSD95 PDZ domain 2 [4] was in the range of 100 to 1000 nM.
